Assays:
[1] = biological target: V1 (A-His8/ΔCys, A-C255A/A-S232A/A-T235S/F-S54C) labelled with Cy3-maleimide on subunit F (Thermus thermophilus) (UniProt Q56403); experiment: FRET or BRET
[2] = biological target: A3B3D (A-His8/ΔCys, A-C255A/A-S232A/A-T235S, D/E48C) labelled with Cy3-maleimide on subunit D (Thermus thermophilus) (UniProt Q56403); experiment: FRET or BRET

Vo (C-S105C/C-C268S/C-C323S) labelled with Cy5-maleimide on subunit C (from UniProt P74902 1-323; P74901 1-188) (complex)
Kd [1]: 260 pM
Kd [2]: 1100 pM

— paper PMC3397886
